Assay [1] deals with T1, human GPRC5D (full-length, on cells) (human, UniProt Q9NZD1 1-345). Kind of assay: cell-based or functional assay.
Assay [2] deals with T2, human BCMA (full-length, on cells) (human, UniProt Q02223 1-184).
T2 construct: Overexpressed on GS-CHO and 293T cells; also the BCMA of H929 and L363 myeloma cells in the killing assays; also called hBCMA; wild-type BCMA
T2 sequence: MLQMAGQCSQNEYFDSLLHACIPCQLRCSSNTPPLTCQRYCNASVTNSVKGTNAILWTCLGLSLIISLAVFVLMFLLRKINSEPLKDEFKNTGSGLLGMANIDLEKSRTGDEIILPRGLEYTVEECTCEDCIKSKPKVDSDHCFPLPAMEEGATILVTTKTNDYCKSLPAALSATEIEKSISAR
Kind of assay: flow cytometry, GS-CHO-hBCMA cells.

Assay [3] has as its target T3, cynomolgus monkey GPRC5D (full-length, on cells) (cynomolgus monkey, UniProt A0A2K5W6I7 1-300).
T3 construct: also called cynoGPRC5D; GS-CHO-cynoGPRC5D
Kind of assay: flow cytometry, GS-CHO-cynoGPRC5D cells. (A flow cytometer gives signals particle by particle.)

For assay [4], the target named is T1, human GPRC5D (full-length, on cells). Kind of assay: flow cytometry, GS-CHO-hGPRC5D cells.
The target in assay [5] is T4, human CD3 (on Jurkat cells and human T cells) (human, UniProt P07766 23-207).
T4 construct: whole, on cells; the other chains of the complex on the cells are not described; also called CD3E
The assay can be described thus: flow cytometry, human CD8 T cells.

Assay [6] has as its target T5, cynomolgus monkey BCMA (full-length, on cells) (cynomolgus monkey, UniProt A0A2K5UD97 1-183).
T5 construct: whole, on cells; also called cynoBCMA; GS-CHO-cynoBCMA
Kind of assay: flow cytometry, GS-CHO-cynoBCMA cells.

For another assay, the target named is T6, BCMA-R39A (on cells) (human, UniProt Q02223 1-184).
T6 construct: also called hBCMA-R39A; 293T-hBCMA-R39A
T6 chain: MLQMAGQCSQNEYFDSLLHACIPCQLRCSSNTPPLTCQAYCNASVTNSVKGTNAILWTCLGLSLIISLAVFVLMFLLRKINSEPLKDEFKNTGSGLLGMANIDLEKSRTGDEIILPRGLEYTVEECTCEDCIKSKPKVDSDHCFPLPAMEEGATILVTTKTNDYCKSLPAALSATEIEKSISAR
The assay can be described thus: flow cytometry on 293T and GS CHO cells (FIG. 2I, 2J).

The next assay deals with T7, BCMA-R27P (on cells) (human, UniProt Q02223 1-184).
T7 construct: also called hBCMA-R27P; 293T-hBCMA-R27P
T7 chain: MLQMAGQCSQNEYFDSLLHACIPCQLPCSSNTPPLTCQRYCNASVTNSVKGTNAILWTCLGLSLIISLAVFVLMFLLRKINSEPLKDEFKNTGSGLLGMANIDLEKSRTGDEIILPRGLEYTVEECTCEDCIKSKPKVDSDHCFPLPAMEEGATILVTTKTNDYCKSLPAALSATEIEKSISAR
The assay is described as above.

For assay [7], the target named is T4, human CD3 (on Jurkat cells and human T …). Kind of assay: flow cytometry, human CD4 T cells.
The target in assay [8] is T2, human BCMA (full-length, on cells). The assay can be described thus: cell-based or functional assay.
For assay [9], the target named is T4, human CD3 (on Jurkat cells and human T …). Kind of assay: flow cytometry, Jurkat cells.
Assay [10] deals with T2, human BCMA (full-length, on cells). The assay can be described thus: cell-based or functional assay. The source holds these as a separate data set.
In assay [11] the target is T1, human GPRC5D (full-length, on cells). Kind of assay: cell-based or functional assay. The source holds these as a separate data set.
The target of assay [12] is T2, human BCMA (full-length, on cells). The assay can be described thus: cell-based or functional assay. The source holds these as a separate data set.
In assay [13] the target is T1, human GPRC5D (full-length, on cells). The assay can be described thus: cell-based or functional assay. The source holds these as a separate data set.
For the next assay, the target named is T8, cyno CD3E&G-His/Free (cynomolgus monkey, UniProt Q95LI5 22-117; Q95LI7 23-113).
T8 construct: Bought recombinant heterodimer; also called monkey CD3 E&G
T8 sequence (looked up) 1: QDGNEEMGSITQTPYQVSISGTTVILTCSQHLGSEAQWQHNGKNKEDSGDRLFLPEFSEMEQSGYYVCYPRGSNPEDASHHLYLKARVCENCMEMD
T8 sequence (looked up) 2: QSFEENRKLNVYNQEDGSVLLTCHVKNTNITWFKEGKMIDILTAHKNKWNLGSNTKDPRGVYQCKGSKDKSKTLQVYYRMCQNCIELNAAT
The assay can be described thus: BLI (Octet), 1:1 fit. (In BLI a coated tip is dipped into the sample, and binding shifts an interference pattern.)

A further assay deals with T9, human CD3E&G-His/Free (human, UniProt P07766 23-126; P09693 23-116).
T9 construct: Bought recombinant heterodimer; 'His/Free' as printed (one chain His-tagged); also called human CD3 E&G heterodimer
The assay can be described thus: BLI (Octet), 1:1 fit.

Assay [14] concerns the target T2, human BCMA (full-length, on cells). The assay can be described thus: cell-based or functional assay. This is another data set of the same source.

Read-outs that look alike come from different tables or passages of the source.

T4 sequence (P07766 23-207): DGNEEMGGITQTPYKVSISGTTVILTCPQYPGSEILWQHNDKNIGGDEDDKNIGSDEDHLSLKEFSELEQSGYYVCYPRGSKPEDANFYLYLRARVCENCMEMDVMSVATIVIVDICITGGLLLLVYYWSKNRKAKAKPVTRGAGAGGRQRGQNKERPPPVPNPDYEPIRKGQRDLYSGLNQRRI
T9 sequence (P07766 23-126, chain 1 of 2): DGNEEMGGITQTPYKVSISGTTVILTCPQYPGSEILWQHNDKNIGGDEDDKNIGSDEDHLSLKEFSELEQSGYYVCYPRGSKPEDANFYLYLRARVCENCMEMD
T9 sequence (P09693 23-116, chain 2 of 2): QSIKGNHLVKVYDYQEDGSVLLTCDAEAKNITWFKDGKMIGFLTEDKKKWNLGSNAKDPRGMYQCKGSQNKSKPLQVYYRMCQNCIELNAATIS
T1 sequence (Q9NZD1 whole entry): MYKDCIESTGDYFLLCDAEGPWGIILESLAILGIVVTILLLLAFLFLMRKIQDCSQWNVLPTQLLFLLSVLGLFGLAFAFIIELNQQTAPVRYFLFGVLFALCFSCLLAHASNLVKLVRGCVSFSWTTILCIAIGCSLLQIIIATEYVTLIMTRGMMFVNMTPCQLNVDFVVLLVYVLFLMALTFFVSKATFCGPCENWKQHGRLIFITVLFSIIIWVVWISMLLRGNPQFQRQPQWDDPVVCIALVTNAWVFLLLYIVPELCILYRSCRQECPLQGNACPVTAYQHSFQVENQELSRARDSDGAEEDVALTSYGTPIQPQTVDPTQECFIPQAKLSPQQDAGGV
T5 sequence (A0A2K5UD97 entry or part of it): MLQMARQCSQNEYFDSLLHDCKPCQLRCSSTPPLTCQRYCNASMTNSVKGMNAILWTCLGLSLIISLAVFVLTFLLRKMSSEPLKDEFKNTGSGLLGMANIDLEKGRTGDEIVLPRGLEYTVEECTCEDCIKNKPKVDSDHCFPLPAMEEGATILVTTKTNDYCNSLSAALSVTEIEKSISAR
T3 sequence (A0A2K5W6I7 entry or part of it limits assumed, form in doubt): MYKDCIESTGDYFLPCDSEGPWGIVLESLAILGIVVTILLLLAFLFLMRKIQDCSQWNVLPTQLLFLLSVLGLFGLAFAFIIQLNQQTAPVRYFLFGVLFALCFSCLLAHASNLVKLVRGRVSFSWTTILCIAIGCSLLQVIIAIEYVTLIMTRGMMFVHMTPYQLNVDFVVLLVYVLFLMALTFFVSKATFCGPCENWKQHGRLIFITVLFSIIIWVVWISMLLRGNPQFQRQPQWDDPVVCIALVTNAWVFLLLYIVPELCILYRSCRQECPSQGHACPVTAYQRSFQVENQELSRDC

B1: B3 (24) (hz5E12_sp34.24_497_triFab) (trispecific antibody, human IgG1, kappa, lambda, L234A L235A)
heavy 1: not shown
light 1: DIVMTQSPDSLAVSLGERATINCRASESVDSYGITFMNWYQQKPGQPPKLLIYAASNQGSGVPDRFSGSGSGTDFTLTISSLQAEDVAVYYCQQSKEVPWTFGQGTKLEIKRTVAAPSVFIFPPSDEQLKSGTASVVCLLNNFYPREAKVQWKVDNALQSGNSQESVTEQDSKDSTYSLSSTLTLSKADYEKHKVYACEVTHQGLSSPVTKSFNRGEC
heavy 2: not shown
light 2: DIQMTQSPSSLSASVGDRVTITCRASQSISRYLNWYQDKPGKAPKLLIYAASSLQSGVPSRFSGSGSGTDFTLTISSLQPEDFATYYCQQKYFDITFGGGTKVEIKRTVAAPSVFIFPPSDECLKSGTASVVCLLNNFYPREAKVQWKVDNALQSGNSQESVTEQDSKDSTYSLSSTLTLSKADYEKHKVYACEVTHQGLSSPVTKSFNRGES
light 3: QAVVTQEPSLTVSPGGTVTLTCRSSTGAVTTSNYANWVQKKPGQAPRGLIGGTNKRAPGVPARFSGSLLGDKAALTLLGAQPEDEAEYYCALWYSNLWVFGQGTKLTVLGQPKAAPSVTLFPPSSEELQANKATLVCLISDFYPGAVTVAWKADSSPVKAGVETTTPSKQSNNKYAASSYLSLTPEQWKSHRSYSCQVTHEGSTVEKTVAPTECS
notes: also called Exemplary antibody No. 1
In general, EC50 refers to the midpoint of the concentration-response curve. As usually defined, the Kd is the concentration at which binding is half-saturated. A word on the koff: it is the rate constant with which the complex falls apart. The term kon denotes the rate constant with which the complex forms. For the molecule B1, the “EC50 of PBMC killing of H929 ko BCMA cells, donor1” value in assay [1] turned out to be 9.31 pM. The 50% effective concentration (EC50) in [2] amounted to 11.4 nM; in [3], 256 nM; in assay [4] it was 80.7 nM; in [5] it was 54.5 nM; in [6], 14.2 nM; in assay [7], 53.6 nM. Further, a half-maximal effect in [9] (EC50) was put at 34.5 nM. Further, the binding result in the assay with BCMA-R39A (on cells) and with BCMA-R27P (on cells) was “binds” in each case. Further, the “EC50 of PBMC killing of H929 ko GPRC5D cells (LDH)” value was determined as 17 pM in assay [8] and 86.7 pM in [12]. Besides, the “EC50 of PBMC killing of H929 ko GPRC5D cells, donor1” value in assay [10] came to 17.5 pM. Moreover, the “EC50 of PBMC killing of H929 ko BCMA cells (LDH)” value in assay [11] came out at 6.98 pM; in [13], 1.49 pM. In addition, the dissociation constant (Kd) in the assay with cyno CD3E&G-His/Free came to 9.51 nM; with human CD3E&G-His/Free, 13.3 nM. The values for the koff with cyno CD3E&G-His/Free and with human CD3E&G-His/Free were 0.00658 s⁻¹ and 0.00859 s⁻¹, respectively. Moreover, the association rate constant (kon) with cyno CD3E&G-His/Free amounted to 692000 M⁻¹ s⁻¹; with human CD3E&G-His/Free, 646000 M⁻¹ s⁻¹.

B2: Inno-B (Hel_sp34.24_497_triFab) (trispecific antibody, human IgG1, kappa, lambda, L234A L235A)
heavy 1: not shown
light 1: not shown
heavy 2: not shown
light 2: DIQMTQSPSSLSASVGDRVTITCRASQSISRYLNWYQDKPGKAPKLLIYAASSLQSGVPSRFSGSGSGTDFTLTISSLQPEDFATYYCQQKYFDITFGGGTKVEIKRTVAAPSVFIFPPSDECLKSGTASVVCLLNNFYPREAKVQWKVDNALQSGNSQESVTEQDSKDSTYSLSSTLTLSKADYEKHKVYACEVTHQGLSSPVTKSFNRGES
light 3: QAVVTQEPSLTVSPGGTVTLTCRSSTGAVTTSNYANWVQKKPGQAPRGLIGGTNKRAPGVPARFSGSLLGDKAALTLLGAQPEDEAEYYCALWYSNLWVFGQGTKLTVLGQPKAAPSVTLFPPSSEELQANKATLVCLISDFYPGAVTVAWKADSSPVKAGVETTTPSKQSNNKYAASSYLSLTPEQWKSHRSYSCQVTHEGSTVEKTVAPTECS
In the case of B2, in assay [14], the “EC50 of PBMC killing of L363 cells” value amounted to 192 pM.

Source of the values: patent publication EP4725970A1 (Fortvita Biologics Inc., dated 2026).
